Laboratory results from US20080260641A1 (Genmab, published 2008).
Values belong to the molecule of their own block, whether it stands above or below them.

Legend:
human CD20 [1] = molecular target: T1, human CD20 (human, UniProt P11836 1-297); test: flow cytometry on CD20-positive NS/0 cells, control antibody
T1 construct: whole, on cells; also called WT CD20; wild-type (WT) CD20
T1 sequence (looked up): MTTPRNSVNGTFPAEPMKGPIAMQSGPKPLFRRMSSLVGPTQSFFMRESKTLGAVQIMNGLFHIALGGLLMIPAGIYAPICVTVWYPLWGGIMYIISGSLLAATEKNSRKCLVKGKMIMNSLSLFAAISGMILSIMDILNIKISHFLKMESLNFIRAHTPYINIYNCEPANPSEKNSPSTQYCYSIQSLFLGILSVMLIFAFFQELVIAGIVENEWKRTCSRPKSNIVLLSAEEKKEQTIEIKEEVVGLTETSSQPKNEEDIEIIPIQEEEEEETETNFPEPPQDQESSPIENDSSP

human CD20 [2] = molecular target: T1, human CD20; test: flow cytometry blocking assay on CD20-NS/0 cells: pre-incubation with the control, then competitor rituximab-FITC 10 µg/ml
human CD20 [3] = molecular target: T1, human CD20; test: flow cytometry, FITC-conjugated antibodies on Daudi and Raji cells

- Binding CD20-NS/0 (mean fluorescence) (mean fluorescence) (human CD20 [1]): 9
- Blocking of rituximab (signal of rituximab-FITC left after pre-incubation) (human CD20 [2]): 182
Molecule: human IgM control antibody

- Binding CD20-NS/0 (mean fluorescence) (mean fluorescence) (human CD20 [1]): 14
- Blocking of rituximab (signal of rituximab-FITC left after pre-incubation) (human CD20 [2]): 179
Molecule: human IgG1 control antibody

- binding result (human CD20 [3]): binds
B1: 11B8 (antibody, V domains shown)
VH: EVQLVQSGGGLVHPGGSLRLSCTGSGFTFSYHAMHWVRQAPGKGLEWVSIIGTGGVTYYADSVKGRFTISRDNVKNSLYLQMNSLRAEDMAVYYCARDYYGAGSFYDGLYGMDVWGQGTTVTVSS
VL: EIVLTQSPATLSLSPGERATLSCRASQSVSSYLAWYQQKPGQAPRLLIYDASNRATGIPARFSGSGSGTDFTLTISSLEPEDFAVYYCQQRSDWPLTFGGGTKVEIK
notes: also called human recombinant monoclonal IgG1,κ anti-CD20 antibody 11B8
